We go through six sequences from the supplement of paper PMC11246515.

This series in a line: total protein half-life in vivo (active degradation + dilution); higher = more stable protein.
The mark [1] stands for this setting: wild type E. coli NCM3722, growth: C-lim chemostat, doubling time 3 h.
Setting [2] is: wild type E. coli NCM3722, growth: C-lim chemostat, doubling time 6 h.
Setting [3] is: wild type E. coli NCM3722, growth: C-lim chemostat, doubling time 12 h.
Where [4] appears, read: E. coli NCM3722 delta-clpP delta-lon delta-hslV, growth: N-lim chemostat, doubling time 6 h.
Setting [5] is: E. coli NCM3722 delta-clpP, growth: N-lim chemostat, doubling time 6 h.
The mark [6] stands for this setting: E. coli NCM3722 delta-hslV, growth: N-lim chemostat, doubling time 6 h.
Where [7] appears, read: E. coli NCM3722 delta-lon, growth: N-lim chemostat, doubling time 6 h.
Where [8] appears, read: E. coli NCM3722 delta-smpB, growth: N-lim chemostat, doubling time 6 h.
Setting [9] is: wild type E. coli NCM3722, growth: N-lim chemostat, doubling time 6 h.
The mark [10] stands for this setting: wild type E. coli NCM3722, growth: N-lim chemostat, doubling time 12 h.
[11] abbreviates: wild type E. coli NCM3722, growth: P-lim chemostat, doubling time 6 h.
The mark [12] stands for this setting: wild type E. coli NCM3722, growth: P-lim chemostat, doubling time 12 h.

± gives the standard deviation of the averaged measurements.

Regarding “MLRPVETPTREIKKLDGLWAFSLDRENCGIDQRWWESALQESRAIAVPGSFNDQFADADIRNYAGNVWYQREVFIPKGWAGQRIVLRFDAVTHYGKVWVNNQEVMEHQGGYTPFEADVTPYVIAGKSVRITVCVNNELNWQTIPPGMVITDENGKKKQSYFHDFFNYAGIHRSVMLYTTPNTWVDDITVVTHVAQDCNHASVDWQVVANGDVSVELRDADQQVVATGQGTSGTLQVVNPHLWQPGEGYLYELCVTAKSQTECDIYPLRVGIRSVAVKGEQFLINHKPFYFTGFGRHEDADLRGKGFDNVLMVHDHALMDWIGANSYRTSHYPYAEEMLDWADEHGIVVIDETAAVGFNLSLGIGFEAGNKPKELYSEEAVNGETQQAHLQAIKELIARDKNHPSVVMWSIANEPDTRPQGAREYFAPLAEATRKLDPTRPITCVNVMFCDAHTDTISDLFDVLCLNRYYGWYVQSGDLETAEKVLEKELLAWQEKLHQPIIITEYGVDTLAGLHSMYTDMWSEEYQCAWLDMYHRVFDRVSAVVGEQVWNFADFATSQGILRVGGNKKGIFTRDRKPKSAAFLLQKRWTGMNFGEKPQQGGKQ”, the “total protein half-life in vivo” value worked out at 2.85 ± 0.27 h under setting [1], 5.46 ± 0.52 h under setting [2] and 8.91 ± 1.3 h under setting [3].

“MNRLPSSASALACSAHALNLIEKRTLDHEEMKALNREVIEYFKEHVNPGFLEYRKSVTAGGDYGAVEWQAGSLNTLVDTQGQEFIDCLGGFGIFNVGHRNPVVVSAVQNQLAKQPLHSQELLDPLRAMLAKTLAALTPGKLKYSFFCNSGTESVEAALKLAKAYQSPRGKFTFIATSGAFHGKSLGALSATAKSTFRKPFMPLLPGFRHVPFGNIEAMRTALNECKKTGDDVAAVILEPIQGEGGVILPPPGYLTAVRKLCDEFGALMILDEVQTGMGRTGKMFACEHENVQPDILCLAKALGGGVMPIGATIATEEVFSVLFDNPFLHTTTFGGNPLACAAALATINVLLEQNLPAQAEQKGDMLLDGFRQLAREYPDLVQEARGKGMLMAIEFVDNEIGYNFASEMFRQRVLVAGTLNNAKTIRIEPPLTLTIEQCELVIKAARKALAAMRVSVEEA”: the “total protein half-life in vivo” value was 4.74 ± 0.26 h under setting [4]; 3.09 ± 0.83 h under setting [5]; 0.385 ± 0.062 h under setting [6]; 0.49 ± 0.12 h under setting [7]; 0.289 ± 0.0059 h under setting [8]; 0.378 ± 0.04 h under setting [1]. Also, the “total protein half-life in vivo” value came to 0.631 ± 0.033 h under setting [2]; 1.06 ± 0.45 h under setting [3]; 0.848 ± 0.61 h under setting [9]; 0.594 ± 0.085 h under setting [10]; 0.667 ± 0.37 h under setting [11]; 1.3 ± 0.8 h under setting [12].

For “MSFELPALPYAKDALAPHISAETIEYHYGKHHQTYVTNLNNLIKGTAFEGKSLEEIIRSSEGGVFNNAAQVWNHTFYWNCLAPNAGGEPTGKVAEAIAASFGSFADFKAQFTDAAIKNFGSGWTWLVKNSDGKLAIVSTSNAGTPLTTDATPLLTVDVWEHAYYIDYRNARPGYLEHFWALVNWEFVAKNLAA [P0AGD3]”, the “total protein half-life in vivo” value came to 5.3 ± 0.47 h under setting [4]; 5.56 ± 1.2 h under setting [5]; 4.773 ± 0.02 h under setting [6]; 6.2 ± 1.1 h under setting [7]; 4.8 ± 0.58 h under setting [8]; 3.18 ± 0.084 h under setting [1]. The “total protein half-life in vivo” value was 5.96 ± 0.084 h under setting [2]; 11.6 ± 0.35 h under setting [3]; 5.07 ± 0.39 h under setting [9]; 9.76 ± 0.58 h under setting [10]; 5.95 ± 0.27 h under setting [11]; 12 ± 0.36 h under setting [12].

In the case of “MKIVIAPDSFKESLSAEKCCQAIKAGFSTLFPDANYICLPIADGGEGTVDAMVAATGGNIVTLEVCGPMGEKVNAFYGLTGDGKTAVIEMAAASGLMLVAPEKRNPLLASSFGTGELIRHALDNDIRHIILGIGGSATVDGGMGMAQALGVRFLDADGQALAANGGNLARVASIEMDECDPRLANCHIEVACDVDNPLVGARGAAAVFGPQKGATPEMVEELEQGLQNYARVLQQQTEINVCQMAGGGAAGGMGIAAAVFLNADIKPGIEIVLNAVNLAQAVQGAALVITGEGRIDSQTAGGKAPLGVASVAKQFNVPVIGIAGVLGDGVEVVHQYGIDAVFSILPRLAPLAEVLASGETNLFNSARNIACAIKIGQGIKN”, the “total protein half-life in vivo” value by setting is: under setting [4], 4.41 ± 0.66 h; under setting [5], 4.58 ± 0.6 h; under setting [6], 4.47 ± 0.077 h; under setting [7], 4.62 ± 0.21 h; under setting [8], 4.3 ± 0.45 h; under setting [1], 3.05 ± 0.13 h. For the same sequence, the “total protein half-life in vivo” value reads like this: under setting [2], 4.82 ± 0.53 h; under setting [3], 10.4 ± 1.2 h; under setting [9], 5.7 ± 1.2 h; under setting [10], 8.201 ± 0.034 h; under setting [11], 5.05 ± 0.15 h; under setting [12], 9.23 ± 0.27 h.

Consider “MNAIWIAVAAVSLLGLAFGAILGYASRRFAVEDDPVVEKIDEILPQSQCGQCGYPGCRPYAEAISCNGEKINRCAPGGEAVMLKIAELLNVEPQPLDGEAQEITPARMVAVIDENNCIGCTKCIQACPVDAIVGATRAMHTVMSDLCTGCNLCVDPCPTHCISLQPVAETPDSWKWDLNTIPVRIIPVEHHA”, for which the “total protein half-life in vivo” value under setting [4] was 2.26 ± 0.093 h; the “total protein half-life in vivo” value under setting [5] turned out to be 1.52 h; the “total protein half-life in vivo” value under setting [8] amounted to 0.89 h; the “total protein half-life in vivo” value under setting [2] is 0.945 h; the “total protein half-life in vivo” value under setting [12] amounted to 1.92 ± 0.49 h.

“MSTSDDIHNTTATGKCPFHQGGHDQSAGAGTTTRDWWPNQLRVDLLNQHSNRSNPLGEDFDYRKEFSKLDYYGLKKDLKALLTESQPWWPADWGSYAGLFIRMAWHGAGTYRSIDGRGGAGRGQQRFAPLNSWPDNVSLDKARRLLWPIKQKYGQKISWADLFILAGNVALENSGFRTFGFGAGREDVWEPDLDVNWGDEKAWLTHRHPEALAKAPLGATEMGLIYVNPEGPDHSGEPLSAAAAIRATFGNMGMNDEETVALIAGGHTLGKTHGAGPTSNVGPDPEAAPIEEQGLGWASTYGSGVGADAITSGLEVVWTQTPTQWSNYFFENLFKYEWVQTRSPAGAIQFEAVDAPEIIPDPFDPSKKRKPTMLVTDLTLRFDPEFEKISRRFLNDPQAFNEAFARAWFKLTHRDMGPKSRYIGPEVPKEDLIWQDPLPQPIYNPTEQDIIDLKFAIADSGLSVSELVSVAWASASTFRGGDKRGGANGARLALMPQRDWDVNAAAVRALPVLEKIQKESGKASLADIIVLAGVVGVEKAASAAGLSIHVPFAPGRVDARQDQTDIEMFELLEPIADGFRNYRARLDVSTTESLLIDKAQQLTLTAPEMTALVGGMRVLGANFDGSKNGVFTDRVGVLSNDFFVNLLDMRYEWKATDESKELFEGRDRETGEVKFTASRADLVFGSNSVLRAVAEVYASSDAHEKFVKDFVAAWVKVMNLDRFDLL”: the “total protein half-life in vivo” value was found to be 4.4 ± 0.59 h under setting [4]; 4.3 ± 0.3 h under setting [5]; 3.14 ± 0.31 h under setting [6]; 3.31 ± 0.44 h under setting [7]; 3.68 ± 0.21 h under setting [8]; 3.116 ± 0.024 h under setting [1]. The “total protein half-life in vivo” value reads like this: under setting [2], 5.85 ± 0.14 h; under setting [3], 11.8 ± 0.71 h; under setting [9], 3.11 ± 0.44 h; under setting [10], 3.44 ± 0.15 h; under setting [11], 5.34 ± 0.14 h; under setting [12], 8.87 ± 0.34 h.
